The text below walks through data of paper PMC6640694.

Among the targets are tOX40.4; tOX40.39; tOX40.35; tOX40.54; tOX40.15; tOX40.21; tOX40.37; tOX40.41; tOX40.31; tOX40.40; tOX40.50; tOX40.19; tOX40.23; tOX40.22.
Holding throughout (assay): BLI; Octet Red96; 5 μg/mL antibody loaded onto Protein A biosensor, dipped into His-tagged OX40 extracellular domain at 200, 100 and 50 nM or 1600, 800 and 400 nM; 1:1 binding model, global fit
In general terms: BLI is a label-free optical method that tracks binding on a fibre tip over time.

B1: recombinant His-tagged human OX40 extracellular domain (domain or fragment)
chain: LHCVGDTYPSNDRCCHECRPGNGMVSRCSRSQNTVCRPCGPGFYNDVVSSKPCKPCTWCNLRSGSERKQLCTATQDTVCRCRAGTQPLDSYKPGVDCAPCPPGHFSPGDNQACKPWTNCTLAGKHTLQPASNSSDAICEDRDPPATQPQETQGPPARPITVQPTEAWPRTSQGPSTRPVEVPGGRA
Consider B1, for which the Kd – broadly, the constant that tells how readily two partners part at equilibrium – came to 9 nM in the test with tOX40.4; 90 nM in the test with tOX40.39; 2.7 nM with tOX40.35; 184 nM with tOX40.54; 6 nM with tOX40.15; 7 nM with tOX40.21. The Kd in the test with tOX40.37 came to 12.5 nM; with tOX40.41 it was 58.4 nM; with tOX40.31, 22.4 nM; in the test with tOX40.40 it was 151 nM; with tOX40.50, 29.8 nM; with tOX40.19, 7.7 nM. For the same molecule, the Kd with tOX40.23 was 5.2 nM; with tOX40.22, 7.3 nM.
